Fewer inactive variants are shown than the library holds.
B1: TPR 5TU (parent)
chain: GGAUCUUCUCGAUCUAACAAAAAAGACAAAUCUGCCACAAAGCUUGAGAGCAUCUUCGGAUGCAGAGGCGGCAGCCUUCGGUGGCGCGAUAGCGCCAACGUUCUCAACUAUGACACGCAAAACGCGUGCUCCGUUGAAUGGAGUUUAUCAUG

Variants of: B1
Assay: polymerase ribozyme fitness, log enrichment relative to wild type (log ratio); higher = more active; in vitro selection for triplet polymerase activity
How it was run: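 The heterodimeric triplet polymerase ribozyme's subunits were each mutagenized into PCR-built libraries and transcribed. Every library was selected once, in triplicate, by annealing with a biotinylated primer, the partner subunit and triplets, incubating frozen at −7 °C, gel-excising extended constructs, capturing on streptavidin beads and running RT-PCR. Input and output libraries were Illumina-sequenced, with genotypes kept only at ≥10 input reads and ≥1 read per output. Fitness, from inverse-variance-weighted replicate averages, is the base-2 logarithm of genotype enrichment over wild-type enrichment.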

Variant	polymerase ribozyme fitness (log ratio)
G42A U148C	≤ -4.2
A41U U144G G152A	-1.09
A41C U55A G58C A98U	-0.108
A41G C95U A122G C149A	≤ -4.2
G42C U44A G70C C96U G126U G141A	≤ -4.2
G42A U55A	-3.81
A41U C85A A98G A122U G152U	≤ -4.2
A41U A89U C93U G117U A147U	-2.89
G42A C43A G48A G50C A66C C85U	≤ -4.2
A41C G50C G84A	≤ -4.2
A41U A66C G88A A113C G143A U146C	≤ -4.2
A41C U56A C85A G117A G140A	≤ -4.2
A41C U53A C76U	-1.65
A41C U61A G143C	-3.94
G42A G88C	≤ -4.2
G42C G84U A138G U146G	≤ -4.2
G42C G48A C103A U144C	≤ -4.2
A41U G84A C96U A107C A147C	≤ -4.2
A41G G50C C125U A142G	-3.92
A41G U53A C85A	-2.72
G42A C43A U82A A98G	≤ -4.2

Variant	polymerase ribozyme fitness (log ratio)
G42A U61A G86A G136C	≤ -4.2
G42C U44A A49U A60C C79U C96U C125A A142G	≤ -4.2
A41U C96A C105A G117U U144G	≤ -4.2
A41C C96A	-0.56
A41G A49C U82G U90G G133A	≤ -4.2
G42A G59C C125G	≤ -4.2
A41U G74A G94C	≤ -4.2
A41G U53G	-0.77
A41U U55A A142G	-2.45
A41U A120G G143A	-2.06
A41C G59U C87U A120U A122C G124U U146C	-2.2
A41G C96A	0.0745
G42C C105G	≤ -4.2
G42C C96U C99U	≤ -4.2
G42A C75G C87A	≤ -4.2
G42C U45G U146C	≤ -4.2
G42C A47G C57A C75G C125G	≤ -4.2
A41C U56A C87U	-1.41
A41C C93G U144C	-3.7
G42A C116G	-3.99
A41C C63G G70C C85U A97C U144A	≤ -4.2

Variant	polymerase ribozyme fitness (log ratio)
A41C G86U A89G G140A	≤ -4.2
A41U C103G G128U	≤ -4.2
G42A G74C G83C A107U G112C	≤ -4.2
A41C G58A	0.163
A41U C72G U90G C99G G112U C118U	≤ -4.2
A41U A52U	-2.47
A41U A52C	-2.05
A41G C51U A89C C95A U135C U148A	≤ -4.2
A41C G67C G68A G88C G92A A107C	≤ -4.2
A41U C76A	-1.99
A41U C93A	-3.19
A41C C57U C87G A98U G136U A147C	≤ -4.2
A41G C76A U77G G112A C116U A142C	≤ -4.2
A41U G80C G88U C103A A107G	≤ -4.2
A41C C54A A91C U104G U127A G140U U151C	≤ -4.2
A41U C103G A113G C125A	≤ -4.2
G42C C95A	≤ -4.2
A41C C93G	-3.5
G42A G68C G94U	≤ -4.2
A41C G58A G68A U104C A113C A147C	≤ -4.2
G42A C116G A150U	≤ -4.2

Variant	polymerase ribozyme fitness (log ratio)
A41G A60G A97U	-0.347
G42A G50C U55A G84A G143U	≤ -4.2
G42A G88A C93G U145G C149A	≤ -4.2
A41U G81A G84C C85A C96U G126A	≤ -4.2
A41U G83A	-0.754
A41U G83U	-1.35
A41C C93U A97C U102G	≤ -4.2
A41C U55C C85G C108U G126A	≤ -4.2
G42A G59A	-4.11
A41U A49C	-3.83
G42C G86C	≤ -4.2
G42C G86U	≤ -4.2
A41G G84A A89G C103G	-3.2
A41C C87G	≤ -4.2
A41C C87U	-1.35
G42C C79G G124C	≤ -4.2
G42C A49G C54G G83C C85U C96A	≤ -4.2
A41U A52C A98U	-2.65
G42A G84A	-3.95
G42A A49G A64G A107U C114U	≤ -4.2
A41C G59C C75U G83C	-2.72

— the RNAGym collection of RNA variant scans (doi:10.1073/pnas.2313332121)
